For experiment [1], the target named is BvPIP1;1 (Beta vulgaris).
Experiment [2] has as its target BvPIP1;1 (Beta vulgaris). The source holds these as a separate data set.

For BvPIP2;1 N64I/E65Q (natural protein), the oocyte membrane Pf on co-injection of BvPIP1;1 and BvPIP2;1 N64I/E65Q cRNA, against the mutant alone in the experiment with BvPIP1;1 (Beta vulgaris) [1] amounted to 4.1 fold. For the substance BvPIP2;1 (natural protein), in the experiment with BvPIP1;1 (Beta vulgaris) [2], the maximal inhibition of Pf by cytosolic acidification in oocytes co-injected with BvPIP2;1 and BvPIP1;1 cRNA (1:1 mass ratio); not significantly different from BvPIP2;1 alone was 87%. In the experiment with BvPIP1;1 (Beta vulgaris) [1], BvPIP2;1 N64H/E65Q (natural protein) had an oocyte membrane Pf on co-injection of BvPIP1;1 and BvPIP2;1 N64H/E65Q cRNA, against the mutant alone of 4.3 fold.

The record behind these values is article PMC3587573.
